Source: publication PMC5826319, “Control of the Nucleotide Cycle in Photoreceptor Cell Extracts by Retinal Degeneration Protein 3” (Frontiers in Molecular Neuroscience, 2018)

How the values were obtained:
[1] = molecular target: T1, Guanylate kinase (GUK) from porcine brain (porcine, UniProt P31006 1-198); assay: cell-based or functional assay
T1 sequence (looked up): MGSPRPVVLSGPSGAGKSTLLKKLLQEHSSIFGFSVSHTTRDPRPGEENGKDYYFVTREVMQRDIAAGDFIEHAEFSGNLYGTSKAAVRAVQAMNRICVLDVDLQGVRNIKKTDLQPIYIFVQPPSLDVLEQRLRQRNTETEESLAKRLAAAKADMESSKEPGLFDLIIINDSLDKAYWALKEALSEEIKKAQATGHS

[2] = molecular target: T2, Guanylate kinase (GUK) in a soluble extract from bovine rod outer segments (bovine (endogenous in rod outer …, UniProt P46195 1-198)); assay: cell-based or functional assay
T2 sequence (looked up): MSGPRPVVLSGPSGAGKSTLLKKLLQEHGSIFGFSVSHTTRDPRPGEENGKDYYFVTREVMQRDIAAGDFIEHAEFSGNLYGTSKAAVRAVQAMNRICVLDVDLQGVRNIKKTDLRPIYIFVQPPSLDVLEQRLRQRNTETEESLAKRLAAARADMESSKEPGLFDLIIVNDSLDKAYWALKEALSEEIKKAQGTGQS

[3] = molecular target: the molecule itself; assay: cross-linking; purified RD3 (0.1 ug) with 0.5 mM BS3 for 2 min at room temperature, stopped with Tris-HCl pH 7.5; SDS-PAGE and anti-RD3 immunoblot; monomer to dimer
[4] = molecular target: T3, Guanylate kinase (GUK), mouse, isoform 1 (mouse, UniProt Q64520-2 1-219); assay: back-scattering interferometry (BSI); free solution, label-free, nothing immobilised; RD3 (or TEV protease) 0 to 300 nM titrated into lysate supernatant of stable GUK HEK-293T cells (0.1 ug/ul) in 20 mM phosphate buffer pH 7.0, 150 mM NaCl, 0.005% Tween 20; overnight at 4°C; titration of lysate without GUK subtracted; apparent KD, Hill fit; conditions: one partner purified
T3 construct: it gives an expected theoretical mass of 22 kDa, which fits about 198 aa better than the printed 219 aa; also called recombinant GUK; GUK1
T3 sequence (looked up): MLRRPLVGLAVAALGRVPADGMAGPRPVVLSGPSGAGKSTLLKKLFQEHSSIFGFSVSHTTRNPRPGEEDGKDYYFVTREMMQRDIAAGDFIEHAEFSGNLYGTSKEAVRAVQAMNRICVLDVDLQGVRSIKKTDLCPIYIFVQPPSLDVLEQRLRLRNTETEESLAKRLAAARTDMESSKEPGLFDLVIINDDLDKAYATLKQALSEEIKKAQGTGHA

- guanylate kinase activity (5'-GMP to GDP, coupled spectrophotometric assay at 340 nm), RD3 0 to 3.5 uM [1]: ~10 fold
- guanylate kinase activity (5'-GMP to GDP, coupled spectrophotometric assay at 340 nm), RD3 0 to 3.5 uM [2]: 2 fold
- Kd [4]: ~100 nM
B1: Retinal degeneration protein 3 (RD3), human, His6-tagged (natural protein, UniProt Q7Z3Z2 1-195, looked up)
chain: MSLISWLRWNEAPSRLSTRSPAEMVLETLMMELTGQMREAERQQRERSNAVRKVCTGVDYSWLASTPRSTYDLSPIERLQLEDVCVKIHPSYCGPAILRFRQLLAEQEPEVQEVSQLFRSVLQEVLERMKQEEEAHKLTRQWSLRPRGSLATFKTRARISPFASDIRTISEDVERDTPPPLRSWSMPEFRAPKAD
notes: The forward primer puts a few extra vector or primer residues before the first Met; also called RD3 - His6; His-tagged RD3
- stoichiometry N [3]: 2
